Legend:
[1] = molecular target: HPV16 E6N domain (residues 1-80), wild type (HPV16); assay: NMR titration
[2] = molecular target: the molecule itself; assay: AUC
[3] = molecular target: the molecule itself; assay: SEC

HPV16 E6N domain (residues 1-80), wild type (domain or fragment)
Kd [1]: 290 µM

B1: HPV18 E6N domain (residues 1-82) (domain or fragment)
chain: MARFEDPTRRPYKLPDLCTELNTSLQDIEITCVYCKTVLELTEVFEFAFKDLFVVYRDSIPHAACHKCIDFYSRIRELRHYS
stoichiometry N [2]: 2

B2: HPV11 MBP-E6N fusion construct (E6N residues 1-81) (domain or fragment)
chain: MESKDASTSATSIDQLCKTFNLSLHTLQIQCVFCRNALTTAEIYAYAYKNLKVVWRDNFPFAACACCLELQGKINQYRHFN
stoichiometry N [3]: 2

— article PMC3325491 (Structure(London, England:1993), 2012)
